The results in this text go back to patent CN114805579A (UNIV ZHENGZHOU, dated 2022).

In one assay the target is 人ACE2 (293T-hACE2细胞表面) (human, UniProt Q9BYF1 18-805). The assay can be described thus: cell-based or functional assay.
In assay [1] the target is hACE2-ecto重组蛋白 (人ACE2胞外区, C端6×His标签) (human, UniProt Q9BYF1 18-740).
Sequence of hACE2-ecto重组蛋白 (人ACE2胞外区, C端6×His标签) (Q9BYF1 other isoform, or with tags, fused parts or gaps): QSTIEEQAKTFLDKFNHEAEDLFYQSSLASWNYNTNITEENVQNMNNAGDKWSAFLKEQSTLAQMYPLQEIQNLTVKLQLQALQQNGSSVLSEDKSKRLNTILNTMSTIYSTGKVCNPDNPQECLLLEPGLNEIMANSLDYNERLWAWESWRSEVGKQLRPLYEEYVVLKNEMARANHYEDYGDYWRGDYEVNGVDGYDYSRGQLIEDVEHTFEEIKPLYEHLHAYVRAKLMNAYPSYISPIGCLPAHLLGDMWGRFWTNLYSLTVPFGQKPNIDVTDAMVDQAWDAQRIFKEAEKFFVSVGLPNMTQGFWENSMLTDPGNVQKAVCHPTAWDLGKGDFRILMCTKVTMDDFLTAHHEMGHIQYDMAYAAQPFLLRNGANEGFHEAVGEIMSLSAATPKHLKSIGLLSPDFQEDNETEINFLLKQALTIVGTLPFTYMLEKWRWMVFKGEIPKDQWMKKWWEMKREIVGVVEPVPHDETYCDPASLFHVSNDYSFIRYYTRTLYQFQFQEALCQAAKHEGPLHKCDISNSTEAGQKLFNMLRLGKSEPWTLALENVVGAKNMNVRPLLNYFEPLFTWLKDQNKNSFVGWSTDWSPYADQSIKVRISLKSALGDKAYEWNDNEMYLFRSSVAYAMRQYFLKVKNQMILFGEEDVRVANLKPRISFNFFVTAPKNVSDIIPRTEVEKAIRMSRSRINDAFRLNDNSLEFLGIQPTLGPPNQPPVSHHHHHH

Sequence of 人ACE2 (293T-hACE2细胞表面) (Q9BYF1 18-805): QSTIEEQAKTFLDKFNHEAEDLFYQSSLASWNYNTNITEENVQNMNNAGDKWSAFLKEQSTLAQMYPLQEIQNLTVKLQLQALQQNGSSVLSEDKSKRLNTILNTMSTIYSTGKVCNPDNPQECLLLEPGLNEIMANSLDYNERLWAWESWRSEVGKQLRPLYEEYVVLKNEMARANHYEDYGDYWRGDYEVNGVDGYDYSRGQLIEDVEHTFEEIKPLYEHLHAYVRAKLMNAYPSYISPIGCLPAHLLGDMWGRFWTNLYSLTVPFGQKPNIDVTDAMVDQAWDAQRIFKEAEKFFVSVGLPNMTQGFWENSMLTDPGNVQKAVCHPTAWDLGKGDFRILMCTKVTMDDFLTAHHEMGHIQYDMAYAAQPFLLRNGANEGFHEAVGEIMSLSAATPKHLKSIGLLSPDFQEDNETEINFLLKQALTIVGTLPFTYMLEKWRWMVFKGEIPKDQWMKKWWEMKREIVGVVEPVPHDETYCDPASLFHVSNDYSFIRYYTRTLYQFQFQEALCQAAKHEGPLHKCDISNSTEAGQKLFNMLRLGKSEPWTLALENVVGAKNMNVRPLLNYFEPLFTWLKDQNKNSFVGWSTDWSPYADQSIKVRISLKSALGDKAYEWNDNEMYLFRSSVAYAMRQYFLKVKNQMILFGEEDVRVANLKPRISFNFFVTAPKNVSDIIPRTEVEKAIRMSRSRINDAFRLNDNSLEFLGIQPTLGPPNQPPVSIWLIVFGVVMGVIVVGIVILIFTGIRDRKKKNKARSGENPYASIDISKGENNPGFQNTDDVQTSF

B1: 抗人ACE2蛋白单克隆抗体2D6 (antibody, V domains shown)
VH: EVKLVESGGGLVQPGGSLRLSCATSGFTFTDYYMSWVRQPPGKALEWLGFIRNRPNDYTTEYSASVKGRFTISRDNSQSILYLQMNTLRAEDSATYYCARDRGLRQAMDYWGQGTSVTVSS
VL: QIVLTQSPAIMSASPGEKVTMTCTASSSVTYMHWYQQKSGTSPKRWIYDTSKLASGVPGRFSGSGSGTSYSLTISSMEAEDAATYFCQQWSFNPLTFGSGTKLEIK
In general, EC50 refers to the concentration needed to bring the measured effect to its halfway point. A high value points to a less potent agent. On to B1, for which, in the assay with 人ACE2 (293T-hACE2细胞表面), the “假病毒阻断试验 IC50, SARS-CoV-2 Delta(B.1.617.2)假病毒感染293T-hACE2细胞 (荧光素酶活性)” value worked out at 0.346 µg/mL; the “假病毒阻断试验 IC50, SARS-CoV-2 Omicron(B.1.1.529)假病毒感染293T-hACE2细胞 (荧光素酶活性)” value turned out to be 0.139 µg/mL; the “假病毒阻断试验 IC50, SARS-CoV-2野生型(Wuhan-1)假病毒感染293T-hACE2细胞 (荧光素酶活性)” value is 0.164 µg/mL. In assay [1], this molecule returned an EC50 of 0.00841 µg/mL.
